Measurements from paper PMC6265244, “A synthetic microbial biosensor for high-throughput screening of lactam biocatalysts” (Nature Communications, 2018).

Columns and labels:
[1] = molecular target: 3-hydroxybutyrate dehydrogenase from Citrobacter freundii (CF3HBD) (Citrobacter freundii); experiment: crystal structure; hanging-drop vapor diffusion at 20 °C, protein with 5 mM NAD+, 3.2 M sodium acetate pH 6.5; space group P2_(1), four molecules in an asymmetric unit
SM3HBD = molecular target: T1, SM3HBD (Serratia marcescens, UniProt A0A2F0PAS1); experiment: cyclization assay with purified enzyme, ε-caprolactam formed; type: biochemical
T1 construct: gene DMW51_14370
T1 sequence (A0A2F0PAS1 1-256): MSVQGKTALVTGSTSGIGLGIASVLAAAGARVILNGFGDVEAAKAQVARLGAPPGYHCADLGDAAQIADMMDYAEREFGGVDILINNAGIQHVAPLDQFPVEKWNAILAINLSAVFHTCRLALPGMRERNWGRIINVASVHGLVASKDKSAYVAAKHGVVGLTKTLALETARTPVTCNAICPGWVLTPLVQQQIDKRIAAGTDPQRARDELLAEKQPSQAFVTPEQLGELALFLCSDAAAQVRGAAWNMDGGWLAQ

CF3HBD = molecular target: T2, CF3HBD (Citrobacter freundii, UniProt A0A0D7LY80); experiment: X-ray crystal structure, […] Å; type: binding; settings: 5 mM NAD+, 3.2 M sodium acetate pH 6.5, 20 °C
T2 construct: gene AI2602V1_2506; tetramer in the asymmetric unit (two subunits NAD+-free)
T2 sequence (A0A0D7LY80 1-256): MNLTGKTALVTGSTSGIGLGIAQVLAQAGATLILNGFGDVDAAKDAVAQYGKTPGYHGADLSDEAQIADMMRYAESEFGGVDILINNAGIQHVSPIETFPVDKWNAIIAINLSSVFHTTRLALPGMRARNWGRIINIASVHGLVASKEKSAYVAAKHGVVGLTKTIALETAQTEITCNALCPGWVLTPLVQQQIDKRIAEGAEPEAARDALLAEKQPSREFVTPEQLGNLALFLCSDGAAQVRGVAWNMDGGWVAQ

[2] = substrate: NCCCCCC(=O)O; experiment: LC-MS of caprolactam formed, Michaelis-Menten fit; type: biochemical, Citrobacter freundii; settings: 50 mM HEPES pH 7.5, 35 °C, 10 min, no cofactor or metal, cyclization to ε-caprolactam

## 3-hydroxybutyrate dehydrogenase from Citrobacter freundii (CF3HBD) (enzyme)
[1]
  stoichiometry N: 4

## NCCCCCC(=O)O [6-aminocaproic acid]
SM3HBD
  cyclization assay with purified enzyme, ε-caprolactam formed: both enzymes showed cyclization activity towards 6-ACA to produce ε-caprolactam

## NC(=O)c1ccc[n+]([C@@H]2O[C@H](COP(=O)(O)OP(=O)(O)OC[C@H]3O[C@@H](n4cnc5c(N)ncnc54)[C@H](O)[C@@H]3O)[C@@H](O)[C@H]2O)c1 [NAD^+]
CF3HBD
  X-ray crystal structure, 2.29 Å: we determined the crystal structure of CF3HBD in complex with NAD^+

B1: CF3HBD (Citrobacter freundii) (protein)
chain: T2 sequence (A0A0D7LY80 1-256)
notes: tetramer in the asymmetric unit (two subunits NAD+-free)
[2]
  Km: 3.3 ± 0.3 mM
  kcat: 0.0012 ± 3.33e-05 s⁻¹
  kcat/Km: 0.363 ± 0.03 M⁻¹ s⁻¹
